Laboratory results reported in the supplement of paper PMC9170038.

Test system: MS2 coat protein
Assay: apparent KD of MS2 coat protein; designed switch direction (-1 OFF switch, 1 ON switch): -1; higher = weaker reporter binding
Procedure, shortened: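 The apparent KD reported per design is the median over clusters of curve fits to normalised cluster fluorescence. The RNA switches were transcribed on Illumina chips by stalled E. coli RNA polymerase. SNAP-549-labelled MS2 coat protein was titrated from 0.7 or 1.5 nM, doubling up to 3 µM, in Tris-HCl pH 7.5 buffer containing KCl, MgCl2, BSA, DTT, tRNA and Tween-20, with no input, 200 uM small-molecule ligand, or an oligonucleotide input.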

[1] = input ligand: microRNA oligo, concentration not stated
[2] = Eterna round: R95, input ligand: microRNA oligo, concentration not stated
[3] = Eterna round: R95, input ligand: FMN 200 uM
[4] = Eterna round: R95, input ligand: none

Sequence	apparent KD of MS2 coat protein (input ligand: FMN 200 uM) [nM]	apparent KD of MS2 coat protein (input ligand: none) [nM]	apparent KD of MS2 coat protein [1] [nM]	apparent KD of MS2 coat protein [2] [nM]	apparent KD of MS2 coat protein [3] [nM]	apparent KD of MS2 coat protein [4] [nM]
GGCCUUCCGCAAGCUUUUUACAUGAGGAUCACCCAUGUGAUUUUUAGUCUUAUGCCCGGGCCCGUGUGGGCCCGGGC [-34.8, -55.6, A 14%] (Eterna round: R97, puzzle: Sensor, turn-off variant 1)	23.4	23.1	–	–	–	–
GGCUCGCCUCACAUGAGGAUCACCCAUGUACAAAACAAGAGGCAGGAUAUGGGCCGCGCAGCGGGCCAGAAGGGCCGCAUGGGU [Edsodidige] (Eterna round: R96, puzzle: Exclusion NG 3)	62.9	113	67.7	–	–	–
GGGCCCGGUGUGAGGAUAUUUCGAGUGAAAGCUUGAGAGAAGGCACAUGAGGAUCACCCAUGUAAGCCGGGCCC [-36.4, -34.3 kcal, A 26%, 1bis-0] (Eterna round: R97, puzzle: Brourd's mod of Exclusion 4)	15.1	17.8	–	–	–	–
GGGCUGUCAGGAUAUACAUGAGGAUCACCCAUGUCGAGCUGUGAUAGGGCAAGAGUAGGUAGAAGGGACGAGAG [JR_Exclu3_Sub042] (puzzle: Exclusion 3)	–	–	–	30.5	–	–
GGGUAGUGAGGAUAUCGUUGUUAGGAGGAGUAGGUAGGAGGCGAGAAGGCACAUGAGGAUCACCCAUGUAUGAG [JR_Exclu4_Sub065] (puzzle: Exclusion 4)	–	–	–	25.5	–	–
GGGUGACAUGAGGAUCACCCAUGUCAGGAUAUGAUUCUGCUUGCGAAAGCGAGUAGAAUCAGAAGGGACAACCC (Eterna round: R97, puzzle: Exclusion 1)	359	57	–	–	–	–
GGUACCUCUGUUAGGAUAUUGUUAGUGUGAAGCGACGAGAAGGAACAUGAGGAUCACCCAUGUUGCAUCGUAAA [Eternabot (L2) Solution 54] (Eterna round: R97, puzzle: Brourd's mod of Exclusion 4)	152	27.1	–	–	–	–
GGUACUAACACGAAAGUGUUAGUACUAUAAGUUUGUGUUACAUGAGGAUCACCCAUGUCCUCAUAAGCUCGUCUUGU [JL-sv3-2.20 mat747 mod] (puzzle: Sensor v3, turn-off variant 2)	–	–	–	59.6	623	685
GGUACUAACACGAGAGUGUUAGUACAAUAAGCUUGUGUUACAUGAGGAUCACCCAUGUCCUCAUAAGCUCGUCUUAU [Mat - Sensor v3 - Turn-off var 2 - D57] (puzzle: Sensor v3, turn-off variant 2)	–	–	–	30.8	107	124
GGUAGUUCAGAUCCACAUGAGGAUCACCCAUGUUAAAGGAUCUAGGAUAUCGGGACAUCGAUGCCCGAGAAGGAGACUUUAGCG [Eternabot solution 39] (Eterna round: R96, puzzle: Exclusion NG 3)	173	101	100	–	–	–
GGUCAGAUGGUAGGAUAUCCAUAUUGAGUGACCCUUUCAUAACAUGAGGAUCACCCAUGUCGGUGGGAGAAGGGCCGUACGGCG [salish99_ExNG02_R04_015] (Eterna round: R96, puzzle: Exclusion NG 2)	176	114	71.2	–	–	–
GGUCCACAUGAGGAUCACCCAUGUUAGGAUAUCUCGCCCGAGUCGUUAUGGGCCGGGCAGAGAAGGAAUGUGAA [Redion] (puzzle: Exclusion 1)	–	–	–	17.9	–	–
GGUCCGCAUGUCAGGAUAUACAUAUGGAUCAUAGAGUAGAAGGGACUUGAGGAUCACCCAAGUAACAAAAGAAG [Tiantere] (Eterna round: R97, puzzle: Brourd's mod of Exclusion 4)	60.1	21.3	–	–	–	–
GGUCCGUCAGUGAGGAUAUUGAGGAGGAGGAGGGACAAGAAGGCACAUGAGGAUCACCCAUGUAGGGACGGACG [Alacar 1st] (Eterna round: R97, puzzle: Brourd's mod of Exclusion 4)	46.4	21.2	–	–	–	–
GGUCCUCUGGUGAGGAUAUCUACCCAGGCAGCUGGAGAGAAGGCACAUGAGGAUCACCCAUGUAGCAGAAAACC [Enremadi] (puzzle: Brourd's mod of Exclusion 4)	–	–	–	9.56	–	–
GGUCCUGAUGAUUUCCUAGACAUGAGGAUCACCCAUGUUUAUUUAUUUUGUUUUUAGCUUUUUGGUCGUCAAUAAUA [Mod-Hoo-honey-4] (Eterna round: R97, puzzle: Sensor, turn-off variant 1)	100	99.6	–	–	–	–
GGUCGAAAACAGCUCCGCGCUGCCCUCGACCGCUCAUUUACAUGAGGAUCACCCAUGUUUUUUGCUUGUCUUGUUUC [Esrionus] (puzzle: Sensor v3, turn-off variant 2)	–	–	–	80.1	18.3	22.9
GGUCGACAUGAGGAUCACCCAUGUCAGGAUAUCUACAUUGAAGCUUCGGCUUCAAUGUAGAGAAGGGACAUAAU [E1/14-B1] (Eterna round: R97, puzzle: Exclusion 1)	35.3	30.1	–	–	–	–

Sequence	apparent KD of MS2 coat protein (input ligand: FMN 200 uM) [nM]	apparent KD of MS2 coat protein (input ligand: none) [nM]	apparent KD of MS2 coat protein [1] [nM]	apparent KD of MS2 coat protein [2] [nM]	apparent KD of MS2 coat protein [3] [nM]	apparent KD of MS2 coat protein [4] [nM]
GGUCGAGAACAGCUCCGCGCCGCCCUCGACCGCUCAUUUACAUGAGGAUCACCCAUGUUUUUUGCUUGUCUUGUUUC [Ceerar] (puzzle: Sensor v3, turn-off variant 2)	–	–	–	98.4	20.6	23.4
GGUCGAGAAGUUAGGAUAUCGAUAAAACAGAAAUUUGAGAAGGGACUUGAGGAUCACCCAAGUUAUUGGUUCUC [Anaranle] (Eterna round: R97, puzzle: Brourd's mod of Exclusion 4)	17.8	19.6	–	–	–	–
GGUCGGCGAGGAUAUACAUGAGGAUCACCCAUGUGAUUUAGUGCACGCGUACGUGUACGUAGAAGGCGCUGACG [JL-ex3-3.27 salish99 mod] (puzzle: Exclusion 3)	–	–	–	14	127	11.3
GGUCUUCAAGUCAGGAUAUCGUCUAAUAGAUCUAACGAGAAGGGACAUGAGGAUCACCCAUGUCGUCUCAUCAG [Ex4 #19] (Eterna round: R97, puzzle: Brourd's mod of Exclusion 4)	34.5	16.5	–	–	–	–
GGUGAGCUACUAGGAUAUCUAGGCUAUUUACCUAGAGAAGGAGUCGCCUUCCCUCGCGUAGAUACAUGAGGAUCACCCAUGUAU [Eternabot solution 50] (Eterna round: R96, puzzle: Exclusion NG 1)	16.9	18.1	14.1	–	–	–
GGUGAGCUAGGAUAUGCUUUGGGCCCGCAUUCCUUCGAUAAACUUGAGGAUCACCCAAGUAGAAGGAGCUUGCC [salish99_ex2_r4_031] (Eterna round: R97, puzzle: Exclusion 2)	30.4	17	–	–	–	–
GGUGCGUAUGUGAGGAUAUGCUGGUCCUUGGAUCAGCAGAAGGCACAUGAGGAUCACCCAUGUGGUGUCGUCCC [salish99_Bmod_Ex4_021] (puzzle: Brourd's mod of Exclusion 4)	–	–	–	241	–	–
GGUGCGUAUGUGAGGAUAUGCUGGUCCUUGGCUCGGCAGAAGGCACAUGAGGAUCACCCAUGUGGUGUCGUUCC [salish99_Bmod_ex4_055] (puzzle: Brourd's mod of Exclusion 4)	–	–	–	42.5	–	–
GGUGCGUUUGUGAGGAUAUGCUGGUCCUUGGAUCUGCAGAAGGCACAUGAGGAUCACCCAUGUGGUGUCGUACC [salish99_Bmod_Ex4_036] (puzzle: Brourd's mod of Exclusion 4)	–	–	–	208	–	–
GGUGGACAUGAGGAUCACCCAUGUGAGGAUAUCGGCUGGCUAGCGGCGGAUGGCUUCUCGAGAAGGCGCAUAGU [Exclusion 1 V81] (puzzle: Exclusion 1)	–	–	–	62.7	–	–
GGUGGACAUGAGGAUCACCCAUGUGAGGAUAUCGGCUGGCUAGUGGCGGAUGGCUUCUCGAGAAGGCGCAUAGU [Exclusion 1 V80] (puzzle: Exclusion 1)	–	–	–	50.2	–	–
GGUGGGCUAGGAUAUGCUUUGGGAAAGCAUUCCUUCGAUAAACUUGAGGAUCACCCAAGUAGAAGGAGCUUGCC [salish99_ex2_r4_020] (Eterna round: R97, puzzle: Exclusion 2)	16.4	13.4	–	–	–	–
GGUUCGAAUGUGAGGAUAUGCUGGUCCUUGGAUCAGCAGAAGGCACAUGAGGAUCACCCAUGUGGUAACGGACC [Mat - Exclusion 4 - Eli Mod - D36] (Eterna round: R97, puzzle: Brourd's mod of Exclusion 4)	178	357	–	–	–	–
GGUUGACAUGAGGAUCACCCAUGUGAGGAUAUGCGAGAGAAAAAAGUGAGGAAGAGAAGCAGAAGGCGCUGUCG [salish99-ex1_r3_014] (puzzle: Exclusion 1)	–	–	–	45.1	68.7	106
GGUUGACAUGAGGAUCACCCAUGUGAGGAUAUGCGAGAGAAAAAAGUGAGGAAGUAAUGCAGAAGGCGCUGUCG [salish99-ex1_r3_017] (puzzle: Exclusion 1)	–	–	–	86.4	132	210
GGUUGGCGAGGAUAUACAUGAGGAUCACCCAUGUGAGAAAAAAAAGUGAGGAAGAAAAGUAGAAGGCGCUGACG [salish99_ex3_r3_015] (puzzle: Exclusion 3)	–	–	–	37.7	67.7	35.6
GGUUGGCGAGGAUAUACAUGAGGAUCACCCAUGUGAGAAAAUAGUGAGGAAAAGAAAAGUAGAAGGCGCUGACG [Mat - Exclusion 3 - Mod of Salish D54] (puzzle: Exclusion 3)	–	–	–	38.8	320	41.5
